Assay [1] deals with T1, hCD27-muFc (human; mouse, UniProt P26842 20-192).
T1 construct: range 1-192; Secreted from HEK293, Protein A purified; not shown: mouse IgG1-Fc (muFc), residues 98 to 324 of UniProt P01868
T1 sequence (looked up): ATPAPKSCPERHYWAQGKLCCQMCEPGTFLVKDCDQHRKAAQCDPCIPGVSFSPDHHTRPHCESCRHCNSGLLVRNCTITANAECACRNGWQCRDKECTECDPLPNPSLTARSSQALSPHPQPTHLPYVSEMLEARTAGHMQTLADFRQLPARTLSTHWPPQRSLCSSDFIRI
Briefly: ELISA, plate coated with hCD27-muFc, Test 1. The protocol:
(§1) The ELISA plate was coated with 2 μg/ml hCD27-muFc, 100 μl/well and incubated at 4° C. overnight. Then it was washed once with 10 mM, pH 7.4 PBS/Tween (0.05%), blocked with PBST containing 5% skimmed milk powder and incubated at 37° C. for 2 h. After washing the plate for 4 times, the humanized antibodies were added and incubated at 37° C. for 40 min, then it was washed for 4 times. Anti-human IgG-HRP-conjugated secondary antibody (Sigma, Cat #A0170-1M) was added and incubated at 37° C. for 40 min. After washing, the plate was developed with TMB substrate and spectrophotometric analysis was performed at OD₄₅₀. In FIGS. 5A-5B, each curve represents the binding result obtained for one of the humanized antibodies. From the results, it can be seen that all these humanized antibodies could bind to human CD27.
Background: ELISA stands for enzyme-linked immunosorbent assay.

The target of assay [2] is T1, hCD27-muFc. Briefly: BLI (Octet K2), antibody on Protein A biosensor, hCD27-muFc in solution. The procedure:
Using the BLI method, each humanized antibody was immobilized on a Protein A biosensor at a concentration of 10 μg/ml, while hCD27-muFc was subjected to 2-fold serial dilution, starting from 100 nM, to obtain 5 gradient dilutions for each antibody. The reaction plate was placed on the Octet K2 instrument. The parameters were set to Baseline 70 s, Association 80 s, Dissociation 300 s, Baseline 260 s, Loading 40 s, and Custom 5 s.

The target of assay [3] is T1, hCD27-muFc. Briefly: ELISA, plate coated with hCD27-muFc, Test 2. The procedure: as §1
Assay [4] addresses T2, hCD27-EGFP on HEK293 cells (human, UniProt P26842 20-260).
T2 construct: EGFP fusion expressed on transfected HEK293 cells; also called CD27-EGFP cells; cell surface CD27
T2 sequence (looked up): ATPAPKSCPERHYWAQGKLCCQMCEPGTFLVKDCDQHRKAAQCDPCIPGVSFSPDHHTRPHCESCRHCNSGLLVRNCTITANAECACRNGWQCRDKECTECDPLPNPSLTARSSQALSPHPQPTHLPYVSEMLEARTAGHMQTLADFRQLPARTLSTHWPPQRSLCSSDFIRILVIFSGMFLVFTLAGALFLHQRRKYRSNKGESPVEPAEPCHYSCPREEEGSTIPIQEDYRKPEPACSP
Briefly: FACS titration on CD27-EGFP HEK293 cells, 8 three-fold dilutions from 20 µg/ml, anti-human Ig-APC secondary, MFI; table drawn under the plot, unit from the x axis; no upper plateau reached. The protocol: Based on the above results of ELISA, 7 humanized antibodies were selected to examine their affinities to cell surface CD27. Briefly, 5×10⁵ CD27-EGFP cells prepared in Example 1 were washed twice in PBS, each of the humanized antibodies (d16647, d12996, d9419, 14822, 9424, d14822, d12674) was added. The antibodies were subjected to 3-fold serial dilution, starting from 20 μg/ml, to obtain 8 gradient dilutions for each antibody. The antibodies and the cells were incubated at 4° C. for 30 min. Then, it was washed twice with PBS, anti-human Ig-APC (Jackson ImmunoResearch Laboratories, Cat #109-135-098) was added, and incubated at 4° C. for 30 min, washed twice with PBS and resuspended in 300 μl PBS. Flow cytometry was then performed, and the results are shown in FIG. 6. m2F11 was used as a control.

B1: 12996 (antibody, human IgG1, V domains shown, not shown: a dimerising Fc or GST)
VH: EVHLQESGGGLVKPGGSLRLSCAASGFTFSSYAMSWVRQAPEKGLEWVAIIGDGDTYTYYPDSVKGRFTISRDNSKNRLYLQMNSLKSEDTAMYYCVRTRGGPFDYWGQGTTLTVSS
VL: EILLTQSPAFMSATPGEKVTITCSASSSVGSMHWYQQKSGQSPRRLIYDTSKLASGVPDRFSGSGSGTDYTLTISSLEAEDAATYYCQQWSSIPPTFGAGTTLELK
notes: Humanized m2F11, human IgG1 / kappa
As usually defined, the EC50 is the concentration that produces a half-maximal response. The term Kd denotes the constant that tells how readily two partners part at equilibrium. Lower therefore signals a tighter complex. As usually defined, the koff is the first-order rate constant of dissociation. A word on the kon: it is a measure of how fast the partners come together. High values mean fast association, low ones slow association. For the molecule B1, the EC50 in assay [1] is 0.0506 mg/L. In assay [2], this molecule displayed a Kd of 4.98 nM, an off-rate (koff) of 0.000368 s⁻¹ and an on-rate (kon) of 73900 M⁻¹ s⁻¹.

B2: d14822 (antibody, human IgG1, V domains shown, not shown: a dimerising Fc or GST)
VH: EVHLQESGGGLVKPGGSLRLSCAASGFTFSSYAMSWVRQTPDKGLEWVAIIGDGDTYTYYPDSVKGRFTISRDNSKNTLYLQMNDLKSEDTAMYYCVRTRGGPFDYWGQGTTLTVSS
VL: EILLTQSPAFMSATPGEKVTITCSASSSVGSMHWYQQKSGQSPRRLIYDTSKLASGVPDRFSGSGSGTDYTLTISSLEAEDAATYYCQQWSSIPPTFGAGTTLELK
notes: as for B1
B2 showed an EC50 in assay [3] of 0.0339 mg/L. Further, in assay [2], the Kd came out at 4.27 nM, the koff was found to be 0.000334 s⁻¹ and the kon worked out at 78200 M⁻¹ s⁻¹. For the same molecule, in assay [4], the LogEC50 was 0.373 Log10(ug/ml).

B3: d12996 (antibody, human IgG1, V domains shown, not shown: a dimerising Fc or GST)
VH: EVHLQESGGGLVKPGGSLRLSCAASGFTFSSYAMSWVRQEPEKNLEWVAIIGDGDTYTYYPDSVKGRFTISRDNSKNRLYLQMNDLKSEDTAMYYCVRTRGGPFDYWGQGTTLTVSS
VL: EILLTQSPAFMSATPGEKVTITCSASSSVGSMHWYQQKSGQSPRRLIYDTSKLASGVPDRFSGSGSGTDYTLTISSLEAEDAATYYCQQWSSIPPTFGAGTTLELK
notes: as for B1
B3: in assay [1], the EC50 came out at 0.03 mg/L. Further, in assay [2], binding was characterised by a dissociation constant (Kd) of 3.39 nM, the koff turned out to be 0.000326 s⁻¹ and the kon came to 96200 M⁻¹ s⁻¹. Also, the LogEC50 in assay [4] was 0.562 Log10(ug/ml).

B4: d9419 (antibody, human IgG1, V domains shown, not shown: a dimerising Fc or GST)
VH: EVHLQESGGALVKPGGSLRLSCAASGFTFSSYAMSWVRQKPEKNLEWVAIIGDGDTYTYYPDSVKGRFTISRDNAKNTLYLQMSDLKSEDTAMYYCVRTRGGPFDYWGQGTTLTVSS
VL: EILLTQSPAFMSATPGEKVTITCSASSSVGSMHWYQQKSGQSPRRLIYDTSKLASGVPDRFSGSGSGTDYTLTISSLEAEDAATYYCQQWSSIPPTFGAGTTLELK
notes: as for B1
Regarding B4, the EC50 in assay [1] was 0.033 mg/L. In assay [2], the Kd is 1.7 nM, the koff turned out to be 0.000205 s⁻¹ and the kon was found to be 120000 M⁻¹ s⁻¹. The LogEC50 in assay [4] is 0.564 Log10(ug/ml).

B5: 16647 (antibody, human IgG1, V domains shown, not shown: a dimerising Fc or GST)
VH: QVELRESGGGLVKPGGSLRLSCAASGFTFSSYAMSWVRQMPGKGLEWVAIIGDGDTYTYYPDSVKGRFTISRDNSKNRLYLQMNSLKSEDTAMYYCVRTRGGPFDYWGQGTTLTVSS
VL: EILLTQSPAFMSATPGEKVTITCSASSSVGSMHWYQQKSGQSPRRLIYDTSKLASGVPDRFSGSGSGTDYTLTISSLEAEDAATYYCQQWSSIPPTFGAGTTLELK
notes: as for B1
The molecule B5 gave an EC50 in assay [3] of 0.0445 mg/L. In assay [2], this molecule returned a Kd of 4.86 nM, a koff of 0.000348 s⁻¹ and an on-rate (kon) of 71500 M⁻¹ s⁻¹.

B6: 12674 (antibody, human IgG1, V domains shown, not shown: a dimerising Fc or GST)
VH: EVHLQESGGGLVKPGGSLRLSCAASGFTFSSYAMSWVRQAPGKGLEWVAIIGDGDTYTYYPDSVKGRFTISRDNSKNRLYLQMNSLKSEDTAMYYCVRTRGGPFDYWGQGTTLTVSS
VL: EILLTQSPAFMSATPGEKVTITCSASSSVGSMHWYQQKSGQSPRRLIYDTSKLASGVPDRFSGSGSGTDYTLTISSLEAEDAATYYCQQWSSIPPTFGAGTTLELK
notes: as for B1
On to B6, for which the response in assay [1] was half-maximal at 0.0585 mg/L (EC50). In assay [2], this molecule returned a Kd of 3.66 nM, a koff of 0.000291 s⁻¹ and a kon of 79500 M⁻¹ s⁻¹.

B7: d12674 (antibody, human IgG1, V domains shown, not shown: a dimerising Fc or GST)
VH: EVHLQESGGGLVKPGGSLRLSCAASGFTFSSYAMSWVRQAPGKGLEWVAIIGDGDTYTYYPDSVKGRFTISRDNSKNRLYLQMNDLKSEDTAMYYCVRTRGGPFDYWGQGTTLTVSS
VL: EILLTQSPAFMSATPGEKVTITCSASSSVGSMHWYQQKSGQSPRRLIYDTSKLASGVPDRFSGSGSGTDYTLTISSLEAEDAATYYCQQWSSIPPTFGAGTTLELK
notes: as for B1
On to B7, for which the 50% effective concentration (EC50) in assay [3] is 0.0424 mg/L. In addition, in assay [2], the Kd stood at 5 nM, the off-rate constant (koff) turned out to be 0.000447 s⁻¹ and the kon is 89400 M⁻¹ s⁻¹. In addition, in assay [4], the LogEC50 is 0.635 Log10(ug/ml).

B8: 14822 (antibody, human IgG1, V domains shown, not shown: a dimerising Fc or GST)
VH: EVHLQESGGGLVKPGGSLRLSCAASGFTFSSYAMSWVRQMPGKGLEWVAIIGDGDTYTYYPDSVKGRFTISRDNSKNTLYLQMNSLKSEDTAMYYCVRTRGGPFDYWGQGTTLTVSS
VL: EILLTQSPAFMSATPGEKVTITCSASSSVGSMHWYQQKSGQSPRRLIYDTSKLASGVPDRFSGSGSGTDYTLTISSLEAEDAATYYCQQWSSIPPTFGAGTTLELK
notes: as for B1
Regarding B8, a half-maximal response in assay [1] (EC50) required 0.0427 mg/L. Moreover, in assay [2], the Kd amounted to 5.15 nM, the koff is 0.000499 s⁻¹ and the kon turned out to be 97000 M⁻¹ s⁻¹. Further, in assay [4], the LogEC50 was 0.62 Log10(ug/ml).

B9: d16647 (antibody, human IgG1, V domains shown, not shown: a dimerising Fc or GST)
VH: QVELRESGGGLVKPGGSLRLSCAASGFTFSSYAMSWVRQTPDKGLEWVAIIGDGDTYTYYPDSVKGRFTISRDNSKNRLYLQMNDLKSEDTAMYYCVRTRGGPFDYWGQGTTLTVSS
VL: EILLTQSPAFMSATPGEKVTITCSASSSVGSMHWYQQKSGQSPRRLIYDTSKLASGVPDRFSGSGSGTDYTLTISSLEAEDAATYYCQQWSSIPPTFGAGTTLELK
notes: as for B1
Turning to B9, the EC50 in assay [1] amounted to 0.0376 mg/L. Further, in assay [2], the Kd came out at 3.05 nM, the koff came out at 0.000281 s⁻¹ and the kon was found to be 92100 M⁻¹ s⁻¹. Further, the LogEC50 in assay [4] is 0.601 Log10(ug/ml).

B10: 9419 (antibody, human IgG1, V domains shown, not shown: a dimerising Fc or GST)
VH: EVHLQESGGALVKPGGSLRLSCAASGFTFSSYAMSWVRQAPEKGLEWVAIIGDGDTYTYYPDSVKGRFTISRDNAKNTLYLQMSNLKSEDTAMYYCVRTRGGPFDYWGQGTTLTVSS
VL: EILLTQSPAFMSATPGEKVTITCSASSSVGSMHWYQQKSGQSPRRLIYDTSKLASGVPDRFSGSGSGTDYTLTISSLEAEDAATYYCQQWSSIPPTFGAGTTLELK
notes: as for B1
In turn, B10 yielded an EC50 in assay [1] of 0.0583 mg/L. In addition, in assay [2], binding was put at a Kd of 2.73 nM, the koff was determined as 0.000287 s⁻¹ and the kon worked out at 105000 M⁻¹ s⁻¹.

B11: 9424 (antibody, human IgG1, V domains shown, not shown: a dimerising Fc or GST)
VH: EVHLQESGGGLVKPGGSLRLSCAASGFTFSSYAMSWVRQTPEKGLEWVAIIGDGDTYTYYPDSVKGRFTISRDNAKNTLYLQMNSLKSEDTAMYYCVRTRGGPFDYWGQGTTLTVSS
VL: EILLTQSPAFMSATPGEKVTITCSASSSVGSMHWYQQKSGQSPRRLIYDTSKLASGVPDRFSGSGSGTDYTLTISSLEAEDAATYYCQQWSSIPPTFGAGTTLELK
notes: as for B1
The molecule B11 displayed an EC50 in assay [3] of 0.0342 mg/L. In assay [2], the Kd is 7.02 nM, the koff is 0.000396 s⁻¹ and the kon was 56500 M⁻¹ s⁻¹. The LogEC50 in assay [4] was 0.546 Log10(ug/ml).
